Data published in patent US20040059519A1.
“And” between values parts separate entries of the source, which are not always exact repeats. Identical values can stand only once. Values belong to the substance of their own block, whether it stands above or below them.

Columns and labels:
[1] = target: Human chorionic gonadotropin (human) (UniProt P01215); experiment: MAB602 capture beads, flow cytometry; hCG 1000.0 ng/mL, anti-AFP probe
[2] = target: Human chorionic gonadotropin (human) (UniProt P01215); experiment: anti-AFP capture beads, flow cytometry; hCG 0.1 ng/mL, anti-AFP probe
Alpha fetoprotein [3] = target: Alpha fetoprotein (UniProt P02771); experiment: multiplex sandwich, S10473 capture beads; AFP 2 ng/mL, no wash
Alpha fetoprotein [4] = target: Alpha fetoprotein (UniProt P02771); experiment: multiplex sandwich, S10473 capture beads; AFP 0.25 ng/mL, no wash
Alpha fetoprotein [5] = target: Alpha fetoprotein (UniProt P02771); experiment: multiplex no-wash sandwich, S10473 beads; serum Level 3D, AFP 111.5 U/mL
Alpha fetoprotein [6] = target: Alpha fetoprotein (UniProt P02771); experiment: anti-AFP capture beads, flow cytometry; AFP 0.1 ng/mL, anti-AFP probe
Alpha fetoprotein [7] = target: Alpha fetoprotein (UniProt P02771); experiment: multiplex no-wash sandwich, S10473 beads; serum Level 2, AFP 53.8 U/mL
Alpha fetoprotein [8] = target: Alpha fetoprotein (UniProt P02771); experiment: multiplex sandwich, S10473 capture beads; AFP 250 ng/mL, washed
Alpha fetoprotein [9] = target: Alpha fetoprotein (UniProt P02771); experiment: multiplex sandwich, S10473 capture beads; AFP 8 ng/mL, no wash
Alpha fetoprotein [10] = target: Alpha fetoprotein (UniProt P02771); experiment: multiplex sandwich, S10473 capture beads; AFP 62 ng/mL, washed
[11] = target: Human chorionic gonadotropin (human) (UniProt P01215); experiment: multiplex sandwich, MAB602 capture beads; hCG 1000 ng/mL, washed
[12] = target: Human chorionic gonadotropin (human) (UniProt P01215); experiment: MAB602 capture beads, flow cytometry; hCG 1000.0 ng/mL, anti-hCG probe
[13] = target: Human chorionic gonadotropin (human) (UniProt P01215); experiment: multiplex sandwich, MAB602 capture beads; hCG 31 ng/mL, washed
[14] = target: Human chorionic gonadotropin (human) (UniProt P01215); experiment: multiplex sandwich, MAB602 capture beads; hCG 500 ng/mL, no wash
[15] = target: Human chorionic gonadotropin (human) (UniProt P01215); experiment: bead sandwich, flow cytometry; capture A3 beads, no hCG (background)
[16] = target: Human chorionic gonadotropin (human) (UniProt P01215); experiment: MAB602 capture beads, flow cytometry; hCG 10.0 ng/mL, anti-hCG probe
[17] = target: Human chorionic gonadotropin (human) (UniProt P01215); experiment: multiplex sandwich, MAB602 capture beads; hCG 2 ng/mL, no wash
[18] = target: Human chorionic gonadotropin (human) (UniProt P01215); experiment: multiplex sandwich, MAB602 capture beads; hCG 125 ng/mL, washed
[19] = target: Human chorionic gonadotropin (human) (UniProt P01215); experiment: multiplex sandwich, MAB602 capture beads; hCG 1 ng/mL, no wash
[20] = target: Human chorionic gonadotropin (human) (UniProt P01215); experiment: sandwich, MAB602 capture beads, flow cytometry; hCG 0.2 ng/mL
[21] = target: Human chorionic gonadotropin (human) (UniProt P01215); experiment: MAB602 capture beads, flow cytometry; hCG 1.0 ng/mL, anti-hCG probe
[22] = target: Human chorionic gonadotropin (human) (UniProt P01215); experiment: multiplex sandwich, MAB602 capture beads; hCG 8 ng/mL, washed
[23] = target: Human chorionic gonadotropin (human) (UniProt P01215); experiment: multiplex sandwich, MAB602 capture beads; hCG 16 ng/mL, washed
[24] = target: Human chorionic gonadotropin (human) (UniProt P01215); experiment: multiplex sandwich, MAB602 capture beads; hCG 0 ng/mL, no wash
[25] = target: Human chorionic gonadotropin (human) (UniProt P01215); experiment: sandwich, MAB602 capture beads, flow cytometry; hCG 0.0002 ng/mL
[26] = target: Human chorionic gonadotropin (human) (UniProt P01215); experiment: sandwich, MAB602 capture beads, flow cytometry; hCG 0.02 ng/mL
Peptide 7 …-biotin = experiment: multiplex 9-peptide bead set, flow cytometry; MAB 384-Bodipy 15.5 ug/mL
Peptide 1 …-biotin = experiment: as above
Peptide 2 …-biotin = experiment: as above
[27] = target: Peptide 5 …-biotin (human); experiment: as above
Peptide 4 …-biotin [28] = experiment: as above
Peptide 9 …-biotin [29] = experiment: as above
Peptide 6 …-biotin [30] = experiment: as above
Peptide 3 …-biotin = experiment: as above
Peptide 8 …-biotin = experiment: as above
[31] = target: Neutravidin (deglycosylated avidin) (UniProt P02701); experiment: single-analyte, Neutravidin bead 60/70 without peptide, flow cytometry
[32] = target: Neutravidin (deglycosylated avidin) (UniProt P02701); experiment: multiplex, Neutravidin bead 40/40 without peptide, flow cytometry
[33] = target: Neutravidin (deglycosylated avidin) (UniProt P02701); experiment: single-analyte, Neutravidin bead 70/60 without peptide, flow cytometry
[34] = target: Peptide 5 …-biotin (human); experiment: multiplex peptide beads, flow cytometry; beads pre-incubated with free biotin 10 ug/mL
Peptide 4 …-biotin [35] = experiment: as above
Peptide 9 …-biotin [36] = experiment: as above
Peptide 6 …-biotin [37] = experiment: as above

Sequence of UniProt P02771 (P02771 19-609 limits assumed): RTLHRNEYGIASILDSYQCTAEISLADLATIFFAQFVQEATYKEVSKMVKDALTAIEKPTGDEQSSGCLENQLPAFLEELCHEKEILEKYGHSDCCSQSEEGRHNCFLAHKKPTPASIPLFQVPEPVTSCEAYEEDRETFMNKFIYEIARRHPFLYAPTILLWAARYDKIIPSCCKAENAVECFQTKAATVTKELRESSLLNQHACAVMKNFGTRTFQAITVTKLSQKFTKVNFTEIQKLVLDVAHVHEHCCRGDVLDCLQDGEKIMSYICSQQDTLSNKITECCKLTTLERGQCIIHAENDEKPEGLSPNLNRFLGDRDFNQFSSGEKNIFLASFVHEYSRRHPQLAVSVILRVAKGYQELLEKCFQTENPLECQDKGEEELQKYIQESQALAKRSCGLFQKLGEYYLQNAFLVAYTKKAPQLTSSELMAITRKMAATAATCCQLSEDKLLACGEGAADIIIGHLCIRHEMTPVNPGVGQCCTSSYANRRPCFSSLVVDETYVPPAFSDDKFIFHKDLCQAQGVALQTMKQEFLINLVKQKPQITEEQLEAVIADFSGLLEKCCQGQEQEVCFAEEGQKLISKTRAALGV
Sequence of UniProt P01215 (P01215 25-116, chain 1 of 2, other chains not shown): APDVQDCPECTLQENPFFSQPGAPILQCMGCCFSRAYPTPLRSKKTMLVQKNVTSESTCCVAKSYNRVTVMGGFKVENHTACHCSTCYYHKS
Sequence of UniProt P02701 (P02701 25-152 limits assumed): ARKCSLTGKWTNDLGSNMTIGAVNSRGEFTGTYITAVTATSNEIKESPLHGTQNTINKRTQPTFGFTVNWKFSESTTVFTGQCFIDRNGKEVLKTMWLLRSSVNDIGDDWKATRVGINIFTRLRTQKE

MIF of Fm [1]: 47
MIF of Fm [2]: 49
MIF of Fm (Alpha fetoprotein [3]): 51
MIF of Fm (Alpha fetoprotein [4]): 17
MIF AVG (Alpha fetoprotein [5]): 552
MIF of FL1 (Alpha fetoprotein [5]): 535 and 562 and 559
MIF of Fm (Alpha fetoprotein [6]): 44
MIF AVG (Alpha fetoprotein [7]): 363
MIF of FL1 (Alpha fetoprotein [7]): 351 and 365 and 372
MIF of Fm (Alpha fetoprotein [8]): 1200
MIF of Fm (Alpha fetoprotein [9]): 190
MIF of Fm (Alpha fetoprotein [10]): 814
Substance: M20077 affinity purified polyclonal anti-AFP antibody, Bodipy FL-CASE labeled

MIF of Fm [11]: 3160
MIF of Fm [12]: 792
MIF of Fm [13]: 3180
MIF of Fm [14]: 1200
MIF of Fm [15]: 2980
MIF of Fm [16]: 530
MIF of Fm [17]: 650
MIF of Fm [18]: 2950
MIF of Fm [19]: 330
MIF of Fm [20]: 258 and 254
MIF of Fm [21]: 104
MIF of Fm [22]: 1960
MIF of Fm [23]: 2530
MIF of Fm [24]: 15
MIF of Fm [25]: 122 and 149
MIF of Fm [26]: 120 and 147
Substance: AB633 affinity purified polyclonal anti-hCG antibody, Bodipy FL-CASE labeled

MIF of Fm (Peptide 7 …-biotin): 35
MIF of Fm (Peptide 1 …-biotin): 28
MIF of Fm (Peptide 2 …-biotin): 36
MIF of Fm [27]: 1350
MIF of Fm (Peptide 4 …-biotin [28]): 35
MIF of Fm (Peptide 9 …-biotin [29]): 29
MIF of Fm (Peptide 6 …-biotin [30]): 67
MIF of Fm (Peptide 3 …-biotin): 36
MIF of Fm (Peptide 8 …-biotin): 32
MIF of Fm [31]: 48
MIF of Fm [32]: 25
MIF of Fm [33]: 70
MIF [34]: 1020
MIF (Peptide 4 …-biotin [35]): 26
MIF (Peptide 9 …-biotin [36]): 36
MIF (Peptide 6 …-biotin [37]): 20
Substance: MAB 384, Bodipy FL-X labeled (antibody)
